Measured values reported in PMC2952847.

Columns and labels:
GST-RHAU(WT) = molecular target: T1, GST-RHAU(WT) (Homo sapiens, UniProt Q9H2U1 1-1008); experiment: EMSA
T1 sequence: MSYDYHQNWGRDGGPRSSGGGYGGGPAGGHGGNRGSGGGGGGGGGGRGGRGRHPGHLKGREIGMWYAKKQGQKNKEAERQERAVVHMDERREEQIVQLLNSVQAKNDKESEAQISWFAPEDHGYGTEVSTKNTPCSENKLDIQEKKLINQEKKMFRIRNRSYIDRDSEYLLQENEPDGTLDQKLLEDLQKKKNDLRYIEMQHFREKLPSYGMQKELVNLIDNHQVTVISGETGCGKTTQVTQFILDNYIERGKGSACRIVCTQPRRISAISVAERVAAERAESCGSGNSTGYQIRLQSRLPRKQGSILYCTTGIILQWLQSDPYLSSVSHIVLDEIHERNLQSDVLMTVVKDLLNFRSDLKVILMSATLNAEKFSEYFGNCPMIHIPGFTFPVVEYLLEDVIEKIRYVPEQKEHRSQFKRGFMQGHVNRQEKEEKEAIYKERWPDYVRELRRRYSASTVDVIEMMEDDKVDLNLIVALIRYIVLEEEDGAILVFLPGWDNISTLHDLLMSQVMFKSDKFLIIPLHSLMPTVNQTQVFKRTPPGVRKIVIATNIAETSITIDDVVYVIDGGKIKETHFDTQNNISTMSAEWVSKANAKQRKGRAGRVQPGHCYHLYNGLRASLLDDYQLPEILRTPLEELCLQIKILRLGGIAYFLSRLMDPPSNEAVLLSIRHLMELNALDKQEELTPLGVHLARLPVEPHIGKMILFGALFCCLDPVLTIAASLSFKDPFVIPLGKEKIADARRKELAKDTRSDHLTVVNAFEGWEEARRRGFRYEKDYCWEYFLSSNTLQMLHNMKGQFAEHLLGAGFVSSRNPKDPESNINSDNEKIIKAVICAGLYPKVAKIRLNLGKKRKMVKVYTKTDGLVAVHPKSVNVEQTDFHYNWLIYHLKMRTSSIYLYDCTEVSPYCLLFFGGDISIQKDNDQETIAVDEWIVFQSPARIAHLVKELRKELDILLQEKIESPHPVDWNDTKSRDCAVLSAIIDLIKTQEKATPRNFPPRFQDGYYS

RHAU(ΔGly–RSM)-FLAG = molecular target: T2, RHAU(ΔGly–RSM)-FLAG (Homo sapiens, UniProt Q9H2U1 105-1008); experiment: EMSA
T2 sequence: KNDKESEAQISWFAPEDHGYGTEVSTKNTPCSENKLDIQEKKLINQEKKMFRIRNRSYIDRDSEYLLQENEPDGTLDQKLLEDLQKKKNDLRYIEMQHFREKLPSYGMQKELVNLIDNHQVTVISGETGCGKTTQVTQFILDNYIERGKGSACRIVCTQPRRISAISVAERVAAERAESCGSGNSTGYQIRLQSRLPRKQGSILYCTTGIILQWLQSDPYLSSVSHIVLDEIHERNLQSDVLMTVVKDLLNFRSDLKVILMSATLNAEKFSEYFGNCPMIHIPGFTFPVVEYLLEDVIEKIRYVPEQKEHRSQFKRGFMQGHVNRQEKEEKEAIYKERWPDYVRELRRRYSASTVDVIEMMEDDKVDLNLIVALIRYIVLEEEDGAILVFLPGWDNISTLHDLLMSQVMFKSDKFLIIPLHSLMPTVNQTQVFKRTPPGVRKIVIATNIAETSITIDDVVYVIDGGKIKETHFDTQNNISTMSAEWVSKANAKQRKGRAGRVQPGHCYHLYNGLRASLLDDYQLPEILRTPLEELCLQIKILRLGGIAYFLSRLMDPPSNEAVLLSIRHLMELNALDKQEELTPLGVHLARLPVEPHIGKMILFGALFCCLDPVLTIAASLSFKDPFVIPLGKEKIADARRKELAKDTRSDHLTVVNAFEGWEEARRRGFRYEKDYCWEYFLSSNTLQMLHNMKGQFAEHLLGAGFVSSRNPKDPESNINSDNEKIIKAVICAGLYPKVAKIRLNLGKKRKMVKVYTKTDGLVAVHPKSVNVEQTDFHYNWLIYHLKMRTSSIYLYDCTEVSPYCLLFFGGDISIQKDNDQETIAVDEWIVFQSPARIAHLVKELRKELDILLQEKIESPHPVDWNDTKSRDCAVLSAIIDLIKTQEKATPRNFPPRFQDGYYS

Question: Which Kd (GST-RHAU(WT)) does the source give for AAAAAAAAAAAAAAAGGGGGAAAAAAAAAAAAAAA (structured_RNA) [tetramolecular G4-rAGA] here?
Answer: Its Kd is 14 nM.

Question: Does AAAAAAAAAAAAAAAGGGGGAAAAAAAAAAAAAAA (structured_RNA) [tetramolecular G4-rAGA] bind (RHAU(ΔGly–RSM)-FLAG)?
Answer: Result: no binding
